Measured values: patent US6576455B1, “Structure-based designed herbicide resistant products” (priority 1995, dated 2003)
Where a chain is given by its changes, count along the chain named.

B1: Met124Ile: Arabidopsis AHAS variant (and gene) with Met124Ile mutation, corresponding to maize Met53Ile; vector pJK002 (protein, UniProt P17597 56-670, looked up, variant M124I)
Acetolactate synthase, …: SSSPSSISAVLNTTTNVTTTPSPTKPTKPETFISRFAPDQPRKGADILVEALERQGVETVFAYPGGASIEIHQALTRSSSIRNVLPRHEQGGVFAAEGYARSSGKPGICIATSGPGATNLVSGLADALLDSVPLVAITGQVPRRMIGTDAFQETPIVEVTRSITKHNYLVMDVEDIPRIIEEAFFLATSGRPGPVLVDVPKDIQQQLAIPNWEQAMRLPGYMSRMPKPPEDSHLEQIVRLISESKKPVLYVGGGCLNSSDELGRFVELTGIPVASTLMGLGSYPCDDELSLHMLGMHGTVYANYAVEHSDLLLAFGVRFDDRVTGKLEAFASRAKIVHIDIDSAEIGKNKTPHVSVCGDVKLALQGMNKVLENRAEELKLDFGVWRNELNVQKQKFPLSFKTFGEAIPPQYAIKVLDELTDGKAIISTGVGQHQMWAAQFYNYKKPRQWLSSGGLGAMGFGLPAAIGASVANPDAIVVDIDGDGSFIMNVQELATIRVENLPVKVLLLNNQHLGMVMQWEDRFYKANRAHTFLGDPAQEDEIFPNMLLFAAACGIPAARVTKKADLREAIQTMLDTPGPYLLDVICPHQEHVLPMIPSGGTFNDVITEGDGRIKY
B2: Met124His: Arabidopsis AHAS variant (and gene) with Met124His mutation, corresponding to maize Met53His; vector pJK003 (protein, UniProt P17597 56-670, looked up, variant M124H)
Acetolactate synthase, …: B1 Acetolactate synthase, … with I69H
B3: Arg199Glu: Arabidopsis AHAS variant (and gene) with Arg199Glu mutation, corresponding to maize Arg128Glu; vector pJK004 (protein, UniProt P17597 56-670, looked up, variant R199E)
Acetolactate synthase, …: B1 Acetolactate synthase, … with I69M, R144E
B4: Maize AHAS: wild type maize AHAS expressed from pAC751 in E. coli and purified, 65 kD (SEQ ID NO:1) (protein)
chain: GSAASPAMPMAPPATPLRPWGPTDPRKGADILVESLERCGVRDVFAYPGGASMEIHQALTRSPVIANHLFRHEQGEAFAASGYARSSGRVGVCIATSGPGATNLVSALADALLDSVPMVAITGQVPRRMIGTDAFQETPIVEVTRSITKHNYLVLDVDDIPRVVQEAFFLASSGRPGPVLVDIPKDIQQQMAVPVWDKPMSLPGYIARLPKPPATELLEQVLRLVGESRRPVLYVGGGCARSGEELRRFVELTGIPVTTTLMGLGNFPSDDPLSLRMLGMHGTVYANYAVDKADLLLALGVRFDDRVTGKIEAFASRAKIVHVDIDPAEIGKNKQPHVSICADVKLALQGMNALLEGSTSKKSFDFGSWNDELDQQKREFPLGYKYSNEEIQPQYAIQVLDELTKGEAIIGTGVGQHQMWAAQYYTYKRPRQWLSSAGLGAMGFGLPAAAGASVANPGVTVVDIDGDGSFLMNVQELAMIRIENLPVKVFVLNNQHLGMVVQWEDRFYKANRAHTYLGNPENESEIYPDFVTIAKGFNIPAVRVTKKNEVRAAIKKMLETPGPYLLDIIVPHQEHVLPMIPSGGAFKDMILDGDGRTVY
modifications: Zea Mays

Assays:
tobacco plants = experiment: Spraying of transformed tobacco plants with imazethapyr; assay type: in vivo, Nicotiana tabacum cv. Wisconsin 38; settings: twice the field rate (100 g/ha) of imazethapyr
Procedure: Leaf disc transformation of Nicotiana tabacum cv. Wisconsin 38 was performed as described by Horsch et al. (Science, 227: 1229-1231, 1985) with slight modifications. Leaf discs were cut from plants grown under sterile conditions and co-cultivated upsidedown in Murashige Skoog media (Sigma Chemical Co., St. Louis, Mo.) for 2-3 days at 25° C. in darkness with Agrobacterium tumefaciens strains containing plasmids pJK002, pJK003, or pJK004. The discs were blotted dry and transferred to regeneration Murashige Skoog medium with B5 vitamins containing 1 mg/L benzyladenine and 0.1 mg/l 1-Napthyl Acetic Acid, 100 mg/L kanamycin, and 500 mg/L cefotaxime (all obtained from Sigma).
Kanamycin-resistant tobacco shoots were transferred to medium containing a 0.25 μM imazethapyr.

Arabidopsis AHAS protein [1] = settings: no herbicide; for Specific Activity: b134 expresses specific activity as units/mg pure AHAS, 1 unit = 1 μmole acetolactate produced/hour; for % Catalytic Activity as Compared to Wild Type: relative to wild-type AHAS
Procedure: (a) specific or catalytic activity for conversion of pyruvate to acetolactate (expressed as units/mg pure AHAS, wherein a unit of activity is defined as 1 μmole acetolactate produced/hour), or for condensation of pyruvate and 2-ketobutyrate to form acetohydroxybutyrate (expressed as units/mg pure AHAS, wherein a unit of activity is defined as 1μ mole acetohydroxybutyrate produced/hr.;
(§1) The enzymatic properties of wild-type and variant AHAS produced in E. coli were measured by a modification of the method of Singh et al. (Anal. Biochem […]:173-179, 1988) as follows:
(§2) A reaction mixture containing 1× AHAS assay buffer (50 mM HEPES pH 7.0, 100 mM pyruvate, 10 mM MgCl2, 1 mM thiamine pyrophosphate (TPP), and 50 μM flavin adenine dinucleotide (FAD)) was obtained either by dilution of enzyme in 2× assay buffer or by addition of concentrated enzyme to 1× AHAS assay buffer. All assays containing imazethapyr and associated controls contained a final concentration of 5% DMSO due to addition of imazethapyr to assay mixtures as a 50% DMSO solution. Assays were performed in a final volume of 250 μL at 37° C. in microtiter plates. After allowing the reaction to proceed for 60 minutes, acetolactate accumulation was measured […] as described by Singh et al., Anal. Biochem 171:173-179, 1988.

Arabidopsis AHAS protein [2] = settings: increasing concentrations of imazethapyr, 5% DMSO; FIGS. 7, 9, 10, 11
Procedure: as §1, §2

[3] = assay type: physicochemical, Zea mays
Procedure: The fusion protein was digested overnight at room temperature. Digested samples were dialyzed against MTPBS and passed twice through a glutathione-agarose column equilibrated in MTPBS to remove the released glutathione transferase protein. […] The concentrated sample was loaded onto a 1.5×95 cm Sephacryl S-100 gel filtration column equilibrated in gel filtration buffer (50 mM HEPES, 150 mM NaCl, pH 7.0). Two mL fractions were collected at a flow rate of 0.14 mL/min. Enzyme stability was tested by storage of the enzyme at 4° C. in gel filtration buffer with the addition of 0.02% sodium azide and in the presence or absence of 2 mM thiamine pyrophosphate and 100 μM flavin adenine dinucleotide (FAD).
Maize AHAS expressed and purified from pAC751 as described in Example 3 above is active in the conversion of pyruvate to acetolactate. Full AHAS activity is dependent on the presence of the cofactors FAD and TPP in the assay medium. […] The activity of the purified enzyme with TPP only, or with no cofactors, was less than 1% of the activity detected in the presence of both TPP and FAD. Normally, AHAS present in crude plant extracts is very labile, particularly in the absence of substrate and cofactors.

Maize AHAS = biological target: T1, Maize AHAS (Zea mays, UniProt Q41769); experiment: Enzymatic activity and cofactor dependence of purified maize AHAS expressed from pAC751; assay type: biochemical
T1 construct: residue #2 corresponds to the putative amino terminus of the mature protein, i.e., after removal of a chloroplast targeting peptide; GST (glutathione S-transferase, pGEX-2T) (N, cleaved yes); made in house; host or cells: E. coli (DH5α), pGEX-2T vector pAC751
T1 sequence (Q41769 40-638): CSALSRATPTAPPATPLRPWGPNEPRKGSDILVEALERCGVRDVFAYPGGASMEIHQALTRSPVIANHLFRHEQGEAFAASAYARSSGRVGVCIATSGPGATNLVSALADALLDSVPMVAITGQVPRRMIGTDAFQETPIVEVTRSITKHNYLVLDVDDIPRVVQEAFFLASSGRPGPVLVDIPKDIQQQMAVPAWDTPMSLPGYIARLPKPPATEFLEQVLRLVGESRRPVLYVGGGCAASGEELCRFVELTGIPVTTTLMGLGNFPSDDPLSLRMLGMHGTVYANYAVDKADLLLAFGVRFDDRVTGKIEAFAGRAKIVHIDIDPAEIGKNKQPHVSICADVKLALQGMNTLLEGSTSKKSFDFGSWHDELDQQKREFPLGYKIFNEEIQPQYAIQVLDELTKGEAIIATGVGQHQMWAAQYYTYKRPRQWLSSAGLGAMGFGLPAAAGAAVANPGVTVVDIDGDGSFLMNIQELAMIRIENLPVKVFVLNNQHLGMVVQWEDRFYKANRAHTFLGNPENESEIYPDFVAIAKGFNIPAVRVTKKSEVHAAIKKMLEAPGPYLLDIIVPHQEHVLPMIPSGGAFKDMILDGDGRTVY
Procedure: E. coli (DH5α) cells transformed with the pGEX-2T vector containing either the maize wild type AHAS gene (vector designation pAC751), the Arabidopsis Ser653Asn mutant, or the Arabidopsis Ile401Phe mutant were grown overnight in LB broth containing 50 μg/mL ampicillin. The overnight culture of E. coli was diluted 1:10 in 1 L LB, 50 μg/mL ampicillin, and 0.1% v/v antifoam A. The culture was incubated at 37° C. with shaking until the OD600 reached approximately 0.8. Isopropylthiogalactose (IPTG) was added to a final concentration of 1 mM and the culture was incubated for 3 more hours.
Cells were harvested by centrifugation at 8,670×g for 10 minutes in a JA-10 rotor and resuspended in 1/100th of the original culture volume in MTPBS (16 mM Na2HPO4, 4 mM NaH2PO4, 150 mM NaCl, pH 7.3). Triton X-100 and lysozyme were added to a final concentration of 1% v/v and 100 μg/mL, respectively. Cells were incubated at 30° C. for 15 minutes cooled to 4° C. on ice, and were lysed by sonication for 10 seconds at level 7 with a Branson Sonifier Cell Disrupter equipped with a microtip probe. The cell free extract was centrifuged at 35,000×g for 10 min. at 4° C. The supernatant was decanted and the centrifugation step was repeated.
Purification of expressed fusion proteins was performed as modified from Smith and Johnson (Gene 67:31-40, 1988). […]

| Molecule | resistance of transformed tobacco plants to spraying with imazethapyr (tobacco plants) | Specific Activity (Arabidopsis AHAS protein [1]) | % Catalytic Activity as Compared to Wild Type (Arabidopsis AHAS protein [1]) [%] | resistance of enzymatic activity to imazethapyr (PURSUIT) (Arabidopsis AHAS protein [2]) | degradation products in SDS-PAGE gels after storage [3] | catalytic activity after storage ([3]; one month at 4° C. in 50 mm HEPES pH 7.0, 150 mM NaCl, 0.02% NaN3, presence or absence of FAD and TPP) | AHAS activity when only FAD was added to the assay medium (Maize AHAS; FAD only, no TPP) | activity with TPP only, or with no cofactors, relative to activity in the presence of both TPP and FAD (Maize AHAS; TPP only or no cofactors) |
| --- | --- | --- | --- | --- | --- | --- | --- | --- |
| B1 | resistant | 102 | 102 | significant level of imidazolinone resistance | – | – | – | – |
| B2 | – | 42.5 | 42.6 | high degree of resistance | – | – | – | – |
| B3 | resistant | 114 | 114 | improved levels of resistance | – | – | – | – |
| B4 | – | – | – | – | no degradation products were visible | no lose in catalytic activity | No activity was detected | less than 1% |
